# Molecular target: Claudin18.2-His protein (human)
# Assay: indirect ELISA on coated Claudin18.2-His
row,EC50 [µg/mL],Binder
1,0.017,"407E11H8 (antibody, V domains shown) VH: DVQLVESGGGLVQPGGSRKLSCAASGFTFSDFGMHWIRQTPEKGLEWVAYISSGSRPIYYADTVKGRFTISRDNPKNTLFLQMTSLRSEDTAMYFCVRFYFGNSFDHWGQGTLVTVSA VL: DIVMTQSPSFLTVTAGEKVTMTCRSSQNLLNSGNLKNYLTWYQQKPGQPPKLLISWASTRESGVPDRFTGSGSGTDFTLTISSVQPEDLALYYCQNAYSFPLTFGAGTKLELK"
2,0.126,"407H12E6 (antibody, V domains shown) VH: DVQLVESGGGLVQPGGSRKLSCAASGFTVSSFGMHWVRQAPEKGLEWVAYISSGSSPIYYADTVKGRFTISRDNPKNTLFLQMTSLRSEDTAIYFCARFYYGNSFDHWGQGTLVTVSA VL: DIVMTQSPSSLTVTTGEKVTMSCKSSQSLLNSGNQKNYLTWYQQKPGQSPKLLIYWASTRESGVPDRFTGSGSGTDFTLTISSVQTEDLAVYFCQNNYFFPLTFGAGTKLELK"

# From patent US20220073643A1
